The text below walks through data of patent publication US9173950B2, “Vitamin D-ghrelin conjugates” (Extend Biosciences, Inc., priority 2012, dated 2015).

The conditions of series [1]: human, in vivo; cited from earlier work.
The nature of series [2]: Pharmacokinetics of rGhrelin and rGhrelin-carrier conjugate after IV injection, plasma ELISA. The format is in vivo, Sprague Dawley rats. The conditions noted are these: 0.1 mg/kg IV. The method, then: Pharmacokinetics of rGhrelin (SEQ ID NO:6) or the rGhrelin-carrier conjugate was studied in Sprague Dawley rats. Briefly, 0.1 mg/kg of each molecule was injected separately into the rats by intravenous (IV) injection. Samples of plasma were collected at 30 mins, 60 mins, 120 mins, 240 mins, 360 mins, 24 hrs and 48 hrs. Samples were analyzed using a commercial ELISA kit validated for analyzing rGhrelin from rat plasma (Millipore, Cat. #EZRGRT-91K). […] Thus, ghrelin in a conjugated form is a useful therapeutic for the treatment of ghrelin-responsive diseases such as cachexia, anorexia and frailty in the elderly.

For the next series, the target named is T1, GHS-R (Homo sapiens, UniProt Q92847).
T1 construct: host or cells: CHO-K1
T1 sequence (Q92847 whole entry, species assumed): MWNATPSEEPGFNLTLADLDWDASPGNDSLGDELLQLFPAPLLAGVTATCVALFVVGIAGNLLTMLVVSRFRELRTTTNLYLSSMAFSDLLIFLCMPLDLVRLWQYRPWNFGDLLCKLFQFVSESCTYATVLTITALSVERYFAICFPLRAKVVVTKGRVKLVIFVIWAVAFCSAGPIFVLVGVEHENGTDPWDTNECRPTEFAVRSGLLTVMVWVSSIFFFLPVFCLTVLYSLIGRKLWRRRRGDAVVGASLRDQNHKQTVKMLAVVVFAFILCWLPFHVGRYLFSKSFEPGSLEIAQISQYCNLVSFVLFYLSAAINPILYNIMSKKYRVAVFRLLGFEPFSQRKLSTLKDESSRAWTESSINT
As to the kind of experiment: Cell-based ghrelin receptor agonist assay, calcium flux (FLIPR) in GHS-R-expressing CHO-K1 cells. The conditions noted are these: in the presence of 10% serum that contains DBP. (In general: Calcium assays in cells follow changes in intracellular calcium, usually with a dye or a luminescent sensor.)

Series [3] is described as follows: Pharmacokinetics of FGF21 and FGF21-carrier conjugate after SC injection, plasma ELISA. The format is in vivo, Sprague Dawley rats. The conditions noted are these: 0.1 mg/kg SC. Here is the method: Pharmacokinetics of FGF21 (SEQ ID NO:3) or the FGF21-carrier conjugate was studied in Sprague Dawley rats. Briefly, 0.1 mg/kg of each molecule was injected separately into the rats by SC injection. Samples of plasma were collected at 30 mins, 60 mins, 120 mins, 240 mins, 360 mins, 24 hrs and 48 hrs. Samples were analyzed using a commercial ELISA kit validated for FGF21 (Millipore, Cat. #EZHFGF21-19K).
A general note: ELISA stands for enzyme-linked immunosorbent assay.

Where two headings read alike, the source gives them in different places.

The half-life is how long it takes for the measured level to halve.

Protocol for GHS-R: The test compounds were added to GHS-R-expressing CHO-K1 cell cultures. […] The activity was measured by a calcium flux-based assay developed by GenScript USA Inc. for the FLIPR™ (Fluorescence Imaging Plate Reader) high-throughput cellular screening instrument.
CHO-K1 cells expressing GHS-R were cultured in Ham's F12 supplemented with 10% fetal bovine serum, 500 mg/mL G418 and were passaged in order to maintain optimal cell health. The cells were seeded in a 384-well black-wall, clear-bottom plate at a density of 20,000 cells per well in 20 μL of growth medium 18 hours prior to the assay and maintained at 37° C./5% CO2. […] The intracellular calcium levels in the cells were measured for 20 seconds using the FLIPR™ instrument prior to addition of the test articles. […] Changes in intracellular calcium levels were measured for an additional 100 sec (21 to 120 seconds).
The average value of the 20 second reading (1 to 20 seconds) was calculated as the baseline reading and the relative fluorescent units (ΔRFU) intensity values were calculated with the maximal fluorescent units (21 to 120 seconds) subtracting the average value of baseline reading. […]
The % activation of compound was calculated using the following equation: % activation=(ΔRFUCompound−ΔRFUBackground)/(ΔRFUAgonist control−ΔRFUBackground)}*100% activation was then plotted as a function of the log of the cumulative doses of compounds. […]

As to `CCCCCCCC(=O)OC[C@H](NC(=O)[C@H](CO)NC(=O)CN)C(=O)N[C@@H](Cc1ccccc1)C(=O)N[C@@H](CC(C)C)C(=O)N[C@@H](CO)C(=O)N1CCC[C@H]1C(=O)N[C@@H](CCC(=O)O)C(=O)N[C@@H](Cc1cnc[nH]1)C(=O)N[C@@H](CCC(N)=O)C(=O)N[C@@H](CCCNC(=N)N)C(=O)N[C@H](C(=O)N[C@@H](CCC(N)=O)C(=O)N[C@@H](CCC(N)=O)C(=O)N[C@@H](CCCNC(=N)N)C(=O)N[C@@H](CCCCN)C(=O)N[C@@H](CCC(=O)O)C(=O)N[C@@H](CO)C(=O)N[C@@H](CCCCN)C(=O)N[C@@H](CCCCN)C(=O)N1CCC[C@H]1C(=O)N1CCC[C@H]1C(=O)N[C@@H](C)C(=O)N[C@@H](CCCCN)C(=O)N[C@@H](CC(C)C)C(=O)N[C@@H](CCC(N)=O)C(=O)N1CCC[C@H]1C(=O)N[C@@H](CCCNC(=N)N)C(=O)O)C(C)C` [ghrelin], the half-life in series [1] was 11 min.

Take `CCCCCCCC(=O)OC[C@H](NC(=O)[C@H](CO)NC(=O)CN)C(=O)N[C@@H](Cc1ccccc1)C(=O)N[C@@H](CC(C)C)C(=O)N[C@@H](CO)C(=O)N1CCC[C@H]1C(=O)N[C@@H](CCC(=O)O)C(=O)N[C@@H](Cc1c[nH]cn1)C(=O)N[C@@H](CCC(N)=O)C(=O)N[C@@H](CCCCN)C(=O)N[C@@H](C)C(=O)N[C@@H](CCC(N)=O)C(=O)N[C@@H](CCC(N)=O)C(=O)N[C@@H](CCCNC(=N)N)C(=O)N[C@@H](CCCCN)C(=O)N[C@@H](CCC(=O)O)C(=O)N[C@@H](CO)C(=O)N[C@@H](CCCCN)C(=O)N[C@@H](CCCCN)C(=O)N1CCC[C@H]1C(=O)N1CCC[C@H]1C(=O)N[C@@H](C)C(=O)N[C@@H](CCCCN)C(=O)N[C@@H](CC(C)C)C(=O)N[C@@H](CCC(N)=O)C(=O)N1CCC[C@H]1C(=O)N[C@@H](CCCNC(=N)N)C(=O)N[C@@H](CS)C(=O)O` [rGhrelin, reference compound]: in series [2] (rat, in vivo, Sprague Dawley rats, plasma, read-out: half-life (WinNonLin) (converted)), the half-life is 22.2 min.

In the case of “rGhrelin-carrier conjugate: Rat ghrelin peptide (SEQ ID NO:6) conjugated via free cysteine to the Vitamin D3-PEG-maleimide carrier of Example 1 (GSSFLSPEHQKAQQRKESKKPPAKLQPRC; Vitamin D3-PEG-maleimide carrier)”, in the series with GHS-R, the “interference in receptor binding and activation” value is “No interference”. In addition, the “half-life (WinNonLin)” value in series [2] (Sprague Dawley rats, plasma) amounted to 480 min. The “improvement in half-life vs rGhrelin” value in series [2] (rats) is reported as 22 fold.

B1: FGF21-carrier conjugate: Modified FGF21 (SEQ ID NO:3) conjugated through its free cysteine to the Vitamin D3-PEG-maleimide carrier of Example 1 (conjugate)
chain: MGSHHHHHHSSGENLYFQGHPCPDSSPLLQFGGQVRQRYLYTDDAQQTEAHLEIREDGTVGGAADQSPESLLQLKALKPGVIQILGVKTSRFLCQRPDGALYGSLHFDPEACSFRELLLEDGYNVYQSEAHGLPLHLPGNKSPHRDPAPRGPARFLPLPGLPPALPEPPGILAPQPPDVGSSDPLSMVEPSQGRSPSYASP
modifications: Vitamin D3-PEG-maleimide carrier
As for B1, in series [3] (Sprague Dawley rats, plasma), the “area under the curve (AUC)” value stood at 1047.98 ng·h/mL and the “average Cmax” value stood at 143.526 ng/mL. In addition, in series [3] (rats), the “increase in bioavailability (ratio of average Cmax, conjugate vs FGF21)” value stood at 380 fold and the “increase in drug exposure (ratio of mean AUC, conjugate vs FGF21)” value came out at 675 fold.
